The assay deals with c-fos leucine zipper helix fused via (Gly4Ser)3 linker to BLIP-D49A, fused via a similar linker to β-lactamase (tri-partite cis-inhibited β-lactamase fusion) (UniProt P01100). Kind of assay: cell-based or functional assay.

Turning to “BIP (β-lactamase-S70A) without amino-terminal c-jun helix (from UniProt P62593 24-286)”, the % plating efficiency on 10 µg/ml ampicillin, 100 µM IPTG turned out to be 100%; the % plating efficiency on 25 µg/ml ampicillin, 100 µM IPTG came out at 0.7%; the % plating efficiency on 50 µg/ml ampicillin, 100 µM IPTG is less than 0.01%; the % plating efficiency on 100 µg/ml ampicillin, 100 µM IPTG was less than 0.01%.
On to “c-jun leucine zipper helix fused via (Gly4Ser)3 linker to BIP (β-lactamase-S70A) (from UniProt P05412 276-315; P62593 24-286)”, for which the % plating efficiency on 10 µg/ml ampicillin, 100 µM IPTG was 100%; the % plating efficiency on 10 µg/ml ampicillin, 100 µM IPTG, c-jun-trx co-expressed as inhibitor is 100%; the % plating efficiency on 25 µg/ml ampicillin, 100 µM IPTG is 100%; the % plating efficiency on 25 µg/ml ampicillin, 100 µM IPTG, c-jun-trx co-expressed as inhibitor was 100%. For the same substance, the % plating efficiency on 50 µg/ml ampicillin, 100 µM IPTG came to 100%; the % plating efficiency on 50 µg/ml ampicillin, 100 µM IPTG, c-jun-trx co-expressed as inhibitor was 9%; the % plating efficiency on 100 µg/ml ampicillin, 100 µM IPTG is 100%; the % plating efficiency on 100 µg/ml ampicillin, 100 µM IPTG, c-jun-trx co-expressed as inhibitor worked out at 0.08%. In addition, the fold reduction of plating efficiency on 100 µg/ml ampicillin by co-expressed c-jun-trx was more than 1000 fold.
In the case of “BLIP-F142A without amino-terminal c-jun helix (from UniProt P35804 37-201)”, the % plating efficiency on 10 µg/ml ampicillin, 100 µM IPTG was 100%; the % plating efficiency on 25 µg/ml ampicillin, 100 µM IPTG stood at 4%; the % plating efficiency on 50 µg/ml ampicillin, 100 µM IPTG was less than 0.01%; the % plating efficiency on 100 µg/ml ampicillin, 100 µM IPTG is less than 0.01%.
With “c-jun leucine zipper helix fused via (Gly4Ser)3 linker to BLIP-F142A (from UniProt P05412 276-315; P35804 37-201)”, the % plating efficiency on 10 µg/ml ampicillin, 100 µM IPTG came to 100%; the % plating efficiency on 10 µg/ml ampicillin, 100 µM IPTG, c-jun-trx co-expressed as inhibitor amounted to 100%; the % plating efficiency on 25 µg/ml ampicillin, 100 µM IPTG worked out at 100%; the % plating efficiency on 25 µg/ml ampicillin, 100 µM IPTG, c-jun-trx co-expressed as inhibitor is 100%. Also, the % plating efficiency on 50 µg/ml ampicillin, 100 µM IPTG is 100%; the % plating efficiency on 50 µg/ml ampicillin, 100 µM IPTG, c-jun-trx co-expressed as inhibitor came to 75%; the % plating efficiency on 100 µg/ml ampicillin, 100 µM IPTG came to 100%; the % plating efficiency on 100 µg/ml ampicillin, 100 µM IPTG, c-jun-trx co-expressed as inhibitor came to 0.5%.
